In patent US20260226152A1 (GlaxoSmithKline, published 2026):
Where a chain is given by its changes, count along the chain named. Like-named read-outs stand apart in the source and are kept apart here. Values belong to the binder of their own block, whether it stands above or below them.

Legend:
Human IL-23 [1] = target: T1, Human IL-23 (human, UniProt Q9NPF7 20-189; P29460 23-328); experiment: cell-based or functional assay
T1 sequence 1: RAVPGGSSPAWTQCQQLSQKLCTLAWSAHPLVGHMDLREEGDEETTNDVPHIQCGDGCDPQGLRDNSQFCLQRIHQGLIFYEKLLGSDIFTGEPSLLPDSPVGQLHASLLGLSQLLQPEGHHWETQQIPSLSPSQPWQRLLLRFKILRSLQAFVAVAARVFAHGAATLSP
T1 sequence 2: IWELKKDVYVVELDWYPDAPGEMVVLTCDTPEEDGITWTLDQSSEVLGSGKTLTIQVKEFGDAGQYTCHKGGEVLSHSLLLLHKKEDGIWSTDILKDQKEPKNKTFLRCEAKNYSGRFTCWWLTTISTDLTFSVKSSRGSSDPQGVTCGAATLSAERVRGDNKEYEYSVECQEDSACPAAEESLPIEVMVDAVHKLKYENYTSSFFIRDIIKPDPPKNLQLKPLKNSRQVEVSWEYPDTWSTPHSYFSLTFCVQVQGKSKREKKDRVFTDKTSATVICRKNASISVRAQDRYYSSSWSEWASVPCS

Cynomolgus monkey IL-18 [2] = target: T2, Cynomolgus monkey IL-18 (Rhesus monkey (identical to cynomolgus …, UniProt Q9BGI5 37-193)); experiment: SPR (Biacore), antibody captured on Protein A/G, cytokine as analyte, 25 C
T2 construct: Bought protein; also called Cyno IL-18; Cynomolgus IL-18
T2 sequence: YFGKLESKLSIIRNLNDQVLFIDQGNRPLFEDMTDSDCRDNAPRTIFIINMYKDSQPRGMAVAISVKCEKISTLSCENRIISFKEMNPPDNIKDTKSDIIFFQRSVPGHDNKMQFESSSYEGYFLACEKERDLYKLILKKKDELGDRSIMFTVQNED
Experimental: (§1) A heterodimeric bsAb, alongside anti-IL-18 and anti-IL-23 common light chain control bispecific antibodies, were assessed for binding to human and cyno IL-18 and IL-23, using the Biacore 8K and T200 (Cytiva) surface plasmon resonance (SPR) instruments. All reagents were generated recombinantly in-house with the exception of Rhesus monkey IL-18 which was purchased from R&D systems (Cat #2548-RM-025/CF). Rhesus and cynomolgus monkey amino acid sequences are identical. Therefore, the protein will be referred to as cynomolgus monkey IL-18.
(§2) Heterodimeric bsAb, anti-IL-18 and anti-IL-23 common light chain bispecific control molecules were assessed for binding to recombinant human and cynomolgus monkey IL-18 and IL-23 using the Biacore 8K and T200 (Cytiva) SPR instruments. The antibodies were captured onto Protein A/G, which was immobilised onto flow cell 2 of 8 channels (Biacore 8K) or flow cells 2, 3 and 4 (Biacore T200) of a CM5 series S sensor chip by primary amine coupling. The IL-18 or IL-23 analytes were passed over the captured antibodies at varying concentrations between 0.04-25 nM. The association phase was for 240 seconds at 30 μl/min, followed by a dissociation step of up to 1200 seconds. A 0 nM (i.e., buffer alone) injection was used to double reference the binding curves. Regeneration of the chip surface between cycles was carried out using 50 mM NaOH. The assay was run at 25° C. in HBS-EP⁺ buffer. Biacore 8K control software version 3.0 was used to run the experiment. Data was analysed using Biacore 8K Insight evaluation software version 3.0. Biacore T200 control software version 1.0 was used to run the experiment. Data was analysed using Biacore T200 evaluation software version 2.0. Affinities and kinetics were determined using the 1:1 kinetic fit inherent to the software where possible. All affinity values generated using both instruments were combined to determine geometric mean values.

Human IL-18 [3] = target: T3, Human IL-18 (human, UniProt Q14116 37-193); experiment: as above
T3 construct: Recombinant, made in-house; In the BLI assay the loaded cytokine was captured on anti-Penta His sensors, so a His tag is implied but not described; also called recombinant human IL-18; interleukin 18
T3 sequence: T2 sequence with I11V, N50S, A63T, R79K, Y134F, K141E
Experimental: as §1, §2

Human IL-18 [4] = target: T3, Human IL-18; experiment: cell-based or functional assay
Human IL-23 [5] = target: T1, Human IL-23; experiment: cell-based or functional assay; remark: listed apart in the source
Human IL-23 [6] = target: T1, Human IL-23; experiment: cell-based or functional assay; remark: listed apart in the source
Human IL-23 [7] = target: T1, Human IL-23; experiment: SPR (Biacore 8K/T200), antibody captured on Protein A/G, cytokine as analyte, 25 C, geometric mean of n=3-5
Experimental: as §1, §2

Cynomolgus monkey IL-23 = target: T4, Cynomolgus monkey IL-23 (cynomolgus monkey); experiment: as above
T4 construct: also called Cyno IL-23
Experimental: as §1, §2

Cynomolgus monkey IL-18 [8] = target: T2, Cynomolgus monkey IL-18; experiment: cell-based or functional assay
Human IL-23 [9] = target: T1, Human IL-23; experiment: SPR (Biacore), antibody captured on Protein A/G, cytokine as analyte, 25 C
Experimental: as §1, §2

Human IL-18 [10] = target: T3, Human IL-18; experiment: SPR (Biacore), antibody captured on Protein A/G, cytokine as analyte, 25 C, 1:1 fit, n=1
Experimental: as §1, §2

Human IL-18 [11] = target: T3, Human IL-18; experiment: cell-based or functional assay; remark: listed apart in the source
Human IL-18 [12] = target: T3, Human IL-18; experiment: cell-based or functional assay; remark: listed apart in the source
Cynomolgus monkey IL-18 [13] = target: T2, Cynomolgus monkey IL-18; experiment: SPR (Biacore 8K/T200), antibody captured on Protein A/G, cytokine as analyte, 25 C, geometric mean of n=3-5
Experimental: as §1, §2

Human IL-18 [14] = target: T3, Human IL-18; experiment: as above
Experimental: as §1, §2

- IC50, inhibition of IL-23-induced pSTAT3 in T cells of human whole blood (Human IL-23 [1]): 163 pM
- pIC50, inhibition of IL-23-induced pSTAT3 in T cells of human whole blood (Human IL-23 [1]): 9.8
- binding result (Cynomolgus monkey IL-18 [2]): no binding (tested: 0.04-25 nM analyte)
- binding result (Human IL-18 [3]): no binding (tested: 0.04-25 nM analyte)
- pIC50 (GeoMean), neutralisation of human IL-18-induced IFNγ secretion by KG-1 cells (Human IL-18 [4]): < 8.48
- IC50 pM, inhibition of human IL-23-induced mouse IL-17A secretion in mouse splenocytes (Human IL-23 [5]): 41.7 pM
- pIC50 (M), inhibition of human IL-23-induced mouse IL-17A secretion in mouse splenocytes (Human IL-23 [5]): 10.4
- IC50 pM (Geomean), neutralisation of human IL-23-induced pSTAT3 in DB cells (MSD) (Human IL-23 [6]): 16.6 pM
- pIC50 (Geomean), neutralisation of human IL-23-induced pSTAT3 in DB cells (MSD) (Human IL-23 [6]): 10.8
- Kd (Human IL-23 [7]): 0.348 nM
- Kd (Cynomolgus monkey IL-23): 0.204 nM
- pIC50 (GeoMean), neutralisation of cynomolgus IL-18-induced IFNγ secretion by KG-1 cells (Cynomolgus monkey IL-18 [8]): < 8.48
B1: IL-23 control 1 (antibody, V domains shown)
VH: QVQLVQSGAEVKKPGSSVKVSCKASGYTFTDQTIHWMRQAPGQGLEWIGYIYPRDDSPKYNENFKGKVTITADKSTSTAYMELSSLRSEDTAVYYCAIPDRSGYAWFIYWGQGTLVTVSS
VL: DIQMTQSPSSLSASVGDRVTITCKASRDVAIAVAWYQQKPGKVPKLLIYWASTRHTGVPSRFSGSGSRTDFTLTISSLQPEDVADYFCHQYSSYPFTFGSGTKLEIK
notes: Anti-IL-23 (risankizumab) mAb plus Het-mAb Fc mutations of Heterodimeric bsAbs 1-4, silencing (LAGA) and half-life extending (YTE) mutations; also called anti-IL-23 control 1; risankizumab variable domains

- binding result (Human IL-23 [9]): no binding (tested: 0.04-25 nM analyte)
- Kd (Human IL-18 [10]): < 0.01 nM
- IC50 (pM, Mean), neutralisation of human IL-18-induced IFNγ secretion by KG-1 cells (Human IL-18 [11]): 52.5 pM
- pIC50 (GeoMean), neutralisation of human IL-18-induced IFNγ secretion by KG-1 cells (Human IL-18 [11]): 10.3
B2: IL-18 control 5 (antibody, V domains shown)
VH: QVQLVQSGAEVKKPGASVKVSCKVSGEISTGYYFHWVRQAPGKGLEWMGRIDPEDDSTKYAERFKDRVTMTEDTSTDTAYMELSSLRSEDTAVYYCTTWRIYRDSSGRPFYVMDAWGQGTLVTVSS
VL: DIQMTQSPSSVSASVGDRVTITCLASEDIYTYLTWYQQKPGKAPKLLIYGANKLQDGVPSRFSGSGSGTDYTLTISSLQPEDFATYYCLQGSKFPLTFGQGTKLEIK
notes: Anti-IL-18 mAb plus Het-mAb Fc mutations of Heterodimeric bsAbs 1-4 and silencing (LAGA) mutations

- binding result (Human IL-23 [9]): no binding (tested: 0.04-25 nM analyte)
- IC50 (pM, Mean), neutralisation of human IL-18-induced IFNγ secretion by KG-1 cells (Human IL-18 [4]): 52.5 pM
- pIC50 (GeoMean), neutralisation of human IL-18-induced IFNγ secretion by KG-1 cells (Human IL-18 [4]): 10.3
- IC50 nM, inhibition of LPS + IL12-induced IFN-γ in human whole blood (Human IL-18 [12]): 5.5 nM
- pIC50, inhibition of LPS + IL12-induced IFN-γ in human whole blood (Human IL-18 [12]): 8.3
- Kd (Cynomolgus monkey IL-18 [13]): 0.064 nM
- Kd (Human IL-18 [14]): 0.067 nM
- IC50 (pM, Mean), neutralisation of cynomolgus IL-18-induced IFNγ secretion by KG-1 cells (Cynomolgus monkey IL-18 [8]): 53.7 pM
- pIC50 (GeoMean), neutralisation of cynomolgus IL-18-induced IFNγ secretion by KG-1 cells (Cynomolgus monkey IL-18 [8]): 10.3
B3: IL-18 control 1 (antibody, V domains shown)
VH: B2 VH
VL: B2 VL
notes: Anti-IL-18 mAb plus Het-mAb Fc mutations of Heterodimeric bsAbs 1-4, silencing (LAGA) and half-life extending (YTE) mutations; also called anti-IL-18 control 1
